# Positions of bridges follow the written chain, without caps; N, C: chain ends.
# How the values were obtained:
# [1] = target: T1, Dkk1 binding to LRP6 E1E2 (Homo sapiens, UniProt O75581); experiment: Peptide inhibition of Dkk1 binding to LRP6 E1E2 (biolayer interferometry); details: peptide 20-fold higher than IC50; ligand three-fold higher than dissociation constant
# T1 construct: construct E1E2-amino acids A20-E631 of LPR6; made in house; host or cells: Tni insect cells (baculovirus, secreted)
# T1 sequence (O75581 20-631): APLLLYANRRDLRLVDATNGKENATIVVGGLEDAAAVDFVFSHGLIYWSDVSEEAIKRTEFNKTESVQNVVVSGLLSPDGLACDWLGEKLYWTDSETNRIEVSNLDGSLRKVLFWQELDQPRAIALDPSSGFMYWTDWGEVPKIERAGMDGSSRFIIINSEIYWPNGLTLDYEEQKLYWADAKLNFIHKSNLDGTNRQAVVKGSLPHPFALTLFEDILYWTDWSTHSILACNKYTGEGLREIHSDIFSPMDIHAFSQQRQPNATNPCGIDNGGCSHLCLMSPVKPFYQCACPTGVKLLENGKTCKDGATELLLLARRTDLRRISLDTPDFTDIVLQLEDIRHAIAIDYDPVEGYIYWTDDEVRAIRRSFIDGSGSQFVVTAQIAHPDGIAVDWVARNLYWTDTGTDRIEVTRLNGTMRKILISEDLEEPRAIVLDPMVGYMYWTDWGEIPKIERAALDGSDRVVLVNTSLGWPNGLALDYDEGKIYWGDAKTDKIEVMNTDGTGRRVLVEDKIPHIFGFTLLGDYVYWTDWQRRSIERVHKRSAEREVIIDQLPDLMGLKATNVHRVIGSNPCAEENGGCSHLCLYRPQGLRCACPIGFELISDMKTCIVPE
# Procedure: (§1) FIG. 22. […] Binding was assessed by biolayer interferometry, as described in Example 1. Immobilized LRP6 E1E2 was exposed to protein ligand (Wnt 9b, Dkk1, or sclerostin) present in solution at a concentration three-fold higher than the measured dissociation constant for E1E2. Competing peptides were added at a saturating level (20-fold higher than the measured IC50 value). Peptide A: Ac-NSNAIKN-am; Peptide B: Ac-[…]-am (disulfide); Peptide C: Ac-[…]-am (disulfide)
# (§2) Binding kinetics were measured by biolayer interferometry using an Octet Red instrument (ForteBio) as previously described (11). Streptavidin (SA) biosensors were loaded with biotinylated hLRP6 in 50 mMTris, pH 8, 300 mM NaCl, 5% (v/v) glycerol, and 0.05% (w/v) Triton X-100. The loaded biosensors were washed in the same buffer before carrying out association and dissociation measurements for the indicated times. The Kd of each interaction was determined using steady state-analysis through the Octet Red software v6.3. Each reported value represents an average of three or more experiments at different concentrations, with a fitted experimental curve for which the square of the correlation coefficient (R^2) is above 0.96.
# (§3) To support the conclusions from protein mutagenesis, peptides were assayed for inhibitory activity toward binding of various ligands to LRP6. Three different peptides inhibited binding of the inhibitors Dkk1 and sclerostin to LRP6 E1E2 without affecting the binding of Wnt9B (FIG. 22).
# [2] = target: T2, sclerostin binding to LRP6 E1E2 (Homo sapiens, UniProt O75581); experiment: Peptide inhibition of sclerostin binding to LRP6 E1E2 (biolayer interferometry); details: peptide 20-fold higher than IC50; ligand three-fold higher than dissociation constant
# T2 construct: construct E1E2-amino acids A20-E631 of LPR6; made in house; host or cells: Tni insect cells (baculovirus, secreted)
# T2 sequence (O75581 20-631): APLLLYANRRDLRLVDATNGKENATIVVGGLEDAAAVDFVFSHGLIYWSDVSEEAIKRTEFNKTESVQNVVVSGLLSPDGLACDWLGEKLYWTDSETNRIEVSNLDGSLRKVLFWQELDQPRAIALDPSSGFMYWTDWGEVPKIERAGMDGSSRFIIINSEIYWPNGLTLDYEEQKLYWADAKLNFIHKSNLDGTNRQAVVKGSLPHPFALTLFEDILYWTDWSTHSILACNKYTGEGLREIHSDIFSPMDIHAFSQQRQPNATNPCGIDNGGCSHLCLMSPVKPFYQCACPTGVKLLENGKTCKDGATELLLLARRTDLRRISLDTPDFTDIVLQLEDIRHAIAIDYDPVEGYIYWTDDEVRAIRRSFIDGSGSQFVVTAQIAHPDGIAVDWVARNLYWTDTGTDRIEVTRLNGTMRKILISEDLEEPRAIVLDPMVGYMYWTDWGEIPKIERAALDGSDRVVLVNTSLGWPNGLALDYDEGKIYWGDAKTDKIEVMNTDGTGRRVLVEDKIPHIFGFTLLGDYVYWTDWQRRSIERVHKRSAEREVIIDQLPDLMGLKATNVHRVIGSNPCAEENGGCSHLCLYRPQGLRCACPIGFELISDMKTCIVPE
# Procedure: as §1, §2, §3
substance,measurement,setting,value
Ac-CNSIKFCG-am (disulfide) (Ac-CNSIKFCG-NH2; disulfide 1-7 (inferred)) [Peptide B],inhibition of Dkk1 binding to LRP6 E1E2,[1],inhibit binding
same,inhibition of sclerostin binding to LRP6 E1E2,[2],inhibit binding
Ac-GSLCSNRIKPDTHCSS-am (disulfide) (Ac-GSLCSNRIKPDTHCSS-NH2; disulfide 4-14 (inferred)) [Peptide C],inhibition of Dkk1 binding to LRP6 E1E2,[1],inhibit binding
same,inhibition of sclerostin binding to LRP6 E1E2,[2],inhibit binding

# From US20140235820A1, “METHODS AND COMPOSITIONS FOR MODULATING THE Wnt PATHWAY” (Genentech, Inc., priority 2010, published 2014)
